Results on 3 molecules are retold here after patent publication US20250115886A1 (University of Pennsylvania, published 2025).

The chains are these.
B2: Cdc24-mScarlet-TsCC(B) (other, not shown: large carriers)
chain: MAIQTRFASGTSLSDLKPKPSATSISIPMQNVMNKPVTEQDSLFHICANIRKRLEVLPQLKPFLQLAYQSSEVLSERQSLLLSQKQHQELLKSNGANRDSSDLAPTLRSSSISTATSLMSMEGISYTNSNPSATPNMEDTLLTFSMGILPITMDCDPVTQLSQLFQQGAPLCILFNSVKPQFKLPVIASDDLKVCKKSIYDFILGCKKHFAFNDEELFTISDVFANSTSQLVKVLEVVETLMNSSPTIFPSKSKTQQIMNAENQHRHQPQQSSKKHNEYVKIIKEFVATERKYVHDLEILDKYRQQLLDSNLITSEELYMLFPNLGDAIDFQRRFLISLEINALVEPSKQRIGALFMHSKHFFKLYEPWSIGQNAAIEFLSSTLHKMRVDESQRFIINNKLELQSFLYKPVQRLCRYPLLVKELLAESSDDNNTKELEAALDISKNIARSINENQRRTENHQVVKKLYGRVVNWKGYRISKFGELLYFDKVFISTTNSSSEPEREFEVYLFEKIIILFSEVVTKKSASSLILKKKSSTSASISASNITDNNGSPHHSYHKRHSNSSSSNNIHLSSSSAAAIIHSSTNSSDNNSNNSSSSSLFKLSANEPKLDLRGRIMIMNLNQIIPQNNRSLNITWESIKEQGNFLLKFKNEETRDNWSSCLQQLIHDLKNEQFKARHHSSTSTTSSTAKSSSMMSPTTTMNTPNHHNSRQTHDSMASFSSSHMKRVSDVLPKRRTTSSSFESEIKSISENFKNSIPESSILFRISYNNNSNNTSSSEIFTLLVEKVWNFDDLIMAINSKISNTHNNNISPITKIKYQDEDGDFVVLGSDEDWNVAKEMLAENNEKFLNIRLYVEVAEEVKAVSAALSERITQLATELNDKAVRAAERRVAEVTRAAGEQTAQAERELADAAQTVDDLEEKLVELQDRYDSLTLALESERSLRQQHDVEMAQLKERLAAAEENTRQEEERYQEQKTVLQDALNAEQAQHKNTREDLQKRLEQISVEANARTEELKSERDKVNTFLTRLESQENALASEEQQHLATRETLQQRLEQAIADTQARAGEIALERDRVSSLTARLESQEKASSEQLVRMGSEIASLTERCTQLENQRDDARLETMGEKETVAALRGEAEALKRQNQSLMAALSGNKQTGGQNA

One assay concerns the target T1, RGG-SZ2 (Caenorhabditis elegans).
T1 construct: Purified from E. coli; also called single RGG domain tagged with SZ2
T1 chain: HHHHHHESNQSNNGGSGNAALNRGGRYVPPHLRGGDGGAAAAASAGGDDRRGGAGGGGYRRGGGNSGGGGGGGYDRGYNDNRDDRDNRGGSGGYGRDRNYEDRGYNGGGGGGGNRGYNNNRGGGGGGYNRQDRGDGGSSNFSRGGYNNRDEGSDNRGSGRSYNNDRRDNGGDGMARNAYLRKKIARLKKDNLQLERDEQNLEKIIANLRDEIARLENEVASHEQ
As to the kind of experiment: fluorescence microscopy of purified proteins, 4 µM.

Assay [1] deals with TsCC(A)-(RGG)3-GFP scaffold (Caenorhabditis elegans). As to the kind of experiment: cell-based or functional assay.
In the assay “Cdc24-mScarlet-TsCC(B)” the target is B2. As to the kind of experiment: fluorescence microscopy of client localization in yeast.

B1: SZ1-RGG (other)
chain: HHHHHHMNLVAQLENEVASLENENETLKKKNLHKKDLIAYLEKEIANLRKKIEEESNQSNNGGSGNAALNRGGRYVPPHLRGGDGGAAAAASAGGDDRRGGAGGGGYRRGGGNSGGGGGGGYDRGYNDNRDDRDNRGGSGGYGRDRNYEDRGYNGGGGGGGNRGYNNNRGGGGGGYNRQDRGDGGSSNFSRGGYNNRDEGSDNRGSGRSYNNDRRDNGGDG
notes: Purified from E. coli; also called single RGG domain tagged with SZ1
Consider B1, for which the binding result with RGG-SZ2 is reported as “binds”. Take B2: the “fold decrease in rate of cell proliferation in liquid culture” value in assay [1] was approximately 12 fold.

B3: (RGG)3 condensates that lack the interaction tag (other)
chain: ESNQSNNGGSGNAALNRGGRYVPPHLRGGDGGAAAAASAGGDDRRGGAGGGGYRRGGGNSGGGGGGGYDRGYNDNRDDRDNRGGSGGYGRDRNYEDRGYNGGGGGGGNRGYNNNRGGGGGGYNRQDRGDGGSSNFSRGGYNNRDEGSDNRGSGRSYNNDRRDNGGDGESNQSNNGGSGNAALNRGGRYVPPHLRGGDGGAAAAASAGGDDRRGGAGGGGYRRGGGNSGGGGGGGYDRGYNDNRDDRDNRGGSGGYGRDRNYEDRGYNGGGGGGGNRGYNNNRGGGGGGYNRQDRGDGGSSNFSRGGYNNRDEGSDNRGSGRSYNNDRRDNGGDGESNQSNNGGSGNAALNRGGRYVPPHLRGGDGGAAAAASAGGDDRRGGAGGGGYRRGGGNSGGGGGGGYDRGYNDNRDDRDNRGGSGGYGRDRNYEDRGYNGGGGGGGNRGYNNNRGGGGGGYNRQDRGDGGSSNFSRGGYNNRDEGSDNRGSGRSYNNDRRDNGGDG
notes: Control scaffold without coiled-coil tag; The other scaffolds carry GFP; also called control scaffolds that lack the cognate coiled-coil tag
For B3, in the assay with Cdc24-mScarlet-TsCC(B), the binding result was “no binding”.
